Measurements reported in patent publication US20080274480A1.

Target: BoNT/A receptor on mouse brain synaptosomes (mouse)

inactive BoNT/A toxin (formaldehyde-inactivated BoNT/A, Metabiologics, Inc.), unlabeled (from UniProt P0DPI1 2-1296)
IC50: 0.013 µM
percent inhibition: 100%
percent inhibition at 2.0 µg: 98%
